According to patent US20230051701A1 (Bristol-Myers Squibb, published 2023):
Where a chain is given by its changes, count along the chain named. Where “and” joins values, the source holds several entries; their conditions need not be identical. Equal values may be shown once.

Key:
[1] = target: T1, human CD73 on cells (Calu6, NCI-H292, SK-MEL-24, human tumor cell lines, human B and T cells) (human, UniProt P21589 27-549); assay: cell-based or functional assay
T1 sequence: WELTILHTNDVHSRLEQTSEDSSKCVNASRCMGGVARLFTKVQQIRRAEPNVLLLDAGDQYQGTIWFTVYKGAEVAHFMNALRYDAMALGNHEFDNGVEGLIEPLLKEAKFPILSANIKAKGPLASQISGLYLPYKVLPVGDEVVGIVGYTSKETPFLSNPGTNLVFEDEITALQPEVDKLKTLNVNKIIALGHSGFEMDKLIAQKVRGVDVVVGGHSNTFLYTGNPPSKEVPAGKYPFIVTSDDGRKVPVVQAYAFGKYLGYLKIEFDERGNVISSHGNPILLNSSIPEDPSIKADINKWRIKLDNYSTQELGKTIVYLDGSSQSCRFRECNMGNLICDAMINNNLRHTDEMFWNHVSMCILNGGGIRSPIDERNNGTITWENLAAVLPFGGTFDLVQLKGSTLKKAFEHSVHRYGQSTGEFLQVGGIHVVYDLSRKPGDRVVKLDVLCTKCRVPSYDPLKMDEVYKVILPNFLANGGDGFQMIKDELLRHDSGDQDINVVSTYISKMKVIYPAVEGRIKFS

[2] = target: T2, cynomolgus CD73 on transfected CHO cells (cynomolgus, UniProt P21589 27-549 (human entry)); assay: flow cytometry, CHO-cynoCD73 cells
T2 construct: also called CHO-cynoCD73; cyno CD73 positive CHO cells
T2 chain: T1 sequence with M199T, T350A, V466I
Protocol: Titration binding curves were produced with CD73 antibodies on Calu6 (CD73 endogenous expressors; human pulmonary adenocarcinoma cell line), DMS114 (CD73 negative; human small cell lung cancer cell line), CHO-cynoCD73 (cynoCD73-transfected) and CHO-K1 (cynoCD73 negative), cells using Alexa Fluor® 647 Goat Anti-Human IgG (H+L) as a secondary antibody, Invitrogen Cat#A-21445, using the following method: 100000 cells were plated in 100 uL PBS+2% FBS per well and blocked for 20 min. Using a U-bottom 96-deep well plate, volumes of antibody and PBS+2% FBS were combined as dictated by Table 12 below.
An 8-point serial dilution was performed by diluting a sixth of the volume (90 uL) into 450 μL PBS+2% FBS. The cell plate was spun down for 5 minutes at 1500 rpm. 100 uL of diluted antibody was added per well of the plate. 100 uL PBS+2% FBS were added to all other wells. […] The plates were spun down at 1500 rpm for 5 min and washed in 200 uL PBS +2% FBS per well. The plates were washed again, resuspended in 200 uL 2% FBS in PBS per well and the samples were run.

[3] = target: T2, cynomolgus CD73 on transfected CHO cells; assay: flow cytometry, CHO-cynoCD73 cells, anti-human IgG secondary (unstained 4.81, sec only 18.5)
[4] = target: T1, human CD73 on cells (Calu6, NCI-H292, …); assay: flow cytometry, Calu6 cells, anti-human IgG secondary (unstained -8.27, sec only 30.3)
[5] = target: T2, cynomolgus CD73 on transfected CHO cells; assay: flow cytometry, CHO-cynoCD73 cells, anti-human IgG secondary; column 'Kd (ng/mL)'
[6] = target: T1, human CD73 on cells (Calu6, NCI-H292, …); assay: cell-based or functional assay; remark: listed apart in the source
[7] = target: T3, rhCD73 bound to his-tag magnet beads (human, UniProt P21589 27-549, limits assumed); assay: cell-based or functional assay
T3 sequence: T1 sequence

[8] = target: T4, N-terminal domain of hCD73 (residues 26-336 of human CD73), His-tagged (human, UniProt P21589 26-336); assay: SPR, mAb captured on protein A
T4 construct: also called N-hCD73; N-hCD73-his
T4 sequence: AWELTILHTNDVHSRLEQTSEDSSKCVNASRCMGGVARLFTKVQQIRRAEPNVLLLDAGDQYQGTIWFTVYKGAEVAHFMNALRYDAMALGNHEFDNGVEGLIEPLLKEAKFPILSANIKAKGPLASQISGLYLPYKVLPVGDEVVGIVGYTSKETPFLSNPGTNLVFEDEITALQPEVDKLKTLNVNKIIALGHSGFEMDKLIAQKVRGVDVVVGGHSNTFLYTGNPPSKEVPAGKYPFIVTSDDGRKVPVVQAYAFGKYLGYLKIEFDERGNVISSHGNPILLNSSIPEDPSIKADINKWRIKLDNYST
Protocol: For these experiments, protein A (Pierce) was immobilized to a density of 3000 — 4000 RU on flow cells 1-4 of a CM5 sensor chip (GE Healthcare) using standard ethyl(dimethylaminopropyl) carbodiimide (EDC)/N-hydroxysuccinimide (NHS) chemistry, with ethanolamine blocking, in a running buffer of 0.01 M HEPES pH 7.4, 0.15 M NaCl, 3 mM EDTA, 0.005% v/v tween 20. […] The running buffer for the kinetic experiments was 10 mM sodium phosphate, 130 mM sodium chloride, 0.05% tween 20, pH 7.1. The surfaces were regenerated after each cycle using two 30 s pulses of 10 mM glycine pH 1.5 at a flow rate of 30 μl/min. Sensogram data was double-referenced and then fitted to a 1:1 Langmuir model using Biacore T100 evaluation software v2.0.4, to determine the association rate constant (ka), the dissociation rate constant (kd), and the equilibrium dissociation constant (KD).

[9] = target: T1, human CD73 on cells (Calu6, NCI-H292, …); assay: cell-based or functional assay; remark: listed apart in the source

B1: 11F11 (antibody, human IgG2, kappa, V domains shown)
VH: QVQLVESGGGVVQPGRSLRLSCATSGFTFSNYGMHWVRQAPGKGLEWVAVILYDGSNKYYPDSVKGRFTISRDNSKNTLYLQMNSLRAEDTAVYYCARGGSSWYPDSFDIWGQGTMVTVSS
VL: DIQMTQSPSSLSASVGDRVTITCRASQGISSWLAWYQQKPEKAPKSLIYAASSLQSGVPSRFSGSGSGTDFTLTISSLQPEDFATYYCQQYNSYPLTFGGGTKVEIKR
notes: Human IgG2 from hybridoma
EC50 Calu6 inhibition [1]: 700 pM
EC50 SKMEL24 inhibition [1]: 3150 pM
EC50 [2]: 580 pM
MFI at 0.07 ng/mL antibody [3]: 200
MFI at 0.43 ng/mL antibody [3]: 342
MFI at 2.57 ng/mL antibody [3]: 670
MFI at 15.43 ng/mL antibody [3]: 1150
MFI at 92.59 ng/mL antibody [3]: 1470
MFI at 555.56 ng/mL antibody [3]: 1640
MFI at 3333.33 ng/mL antibody [3]: 1990
MFI at 20000 ng/mL antibody [3]: 2660
MFI at 0.07 ng/mL antibody [4]: 788
MFI at 0.43 ng/mL antibody [4]: 1290
MFI at 2.57 ng/mL antibody [4]: 2250
MFI at 15.43 ng/mL antibody [4]: 4830
MFI at 92.59 ng/mL antibody [4]: 12100
MFI at 555.56 ng/mL antibody [4]: 27400
MFI at 3333.33 ng/mL antibody [4]: 29700
MFI at 20000 ng/mL antibody [4]: 36600
Kd [5]: 0.0207 µg/mL
Ymax, cAMP HTRF assay [6]: 76 % of 100 nM 11F11
EC50 (nM), inhibition of bead-bound rhCD73 enzymatic activity [7]: 3.98 nM
Kd [8]: 1600 pM and 560 pM
EC50 (nM), CD73 internalization, Calu6, 2 h [9]: 0.58 nM
Ymax, CD73 internalization, Calu6, 2 h [9]: 98 % of 100 nM 11F11
